The results in this text go back to the DeepSol protein solubility set.

A short description of the series: soluble on expression in E. coli; label from the status in PepcDB or PDB records.
On to “MDLEAPPTLLQLAAQCTVRKEVLTISVLQNLPMKLFPPLFKEADILRKAKMIKLLVEYWPYPSLLVGLLIDKTNLETFQAILEGVGTWLKRKYRPRMGKLQVVDLRNGHHDFWDMLAGREGGDQLVETMPEKQEVEGHSRRQRLRVFSDLSFKSSRHEDKQQTHLLQWAKDREGFLHLCCEKLEIGALGVSKVKKVLKLLQPEFIKELELNTVGNLSKLTKLVPCISKMRNLQKLMLVRIFGRHTYTPLEERNVTKILSLFPKLSYLQHLTIDDVYFLRDHMNELFRYLEAPLLSLTITLCQISQSDLESFSQHWNYGQLKHLCLKGVSLSTLNVTPLKFFLESVADTLQTLELEDCRMKDSHLRILLPALTKCTRLTSINFYDNNISRDVLQDLLHRTANMSQLTMELYPAPVEVYNEWSYVQVERFSQLCAELMNTLITVRRPKSVCFGTYSCYDCDTHCIYGNQTTFCECLE”, for which the “soluble on expression in E. coli” value is reported as “not soluble”. The result for “AMGVPCVEDEDFIQALDKMMLENLQQRSGESVKVHQLDVAIPLHLKSQLRKGPPLGGGEGEAESADTMPFVMLTRKGNKQQFKILNVPMSSQLAANH” reads “soluble”. The result for “MGSDKIHHHHHHMEELIQKALSSSNKVSSNSLIEKIIPVGGGCIHKAWSIHFQNGKRVFAKSNYIDNINMFKFERECLSVLKRFANESYICVPETLDLISYQNISILFLEWIDLKQCQQNVLGKGLALLHKSSSEWSKKNFGWEEEGFIGSSTQARGWKSNWGEFFVNYRLRPQLLQAKAWGVRVEDYEDVLIYLSSYLNDHQPKTSLVHGDLWSGNCGSTKNGLGSLYDPACYWADREVDISMTKLFGGFNREFYKGYEEIWPLNKFSKDRNDIYNLYHLLNHANIFGGSYKENSLKILKDLRSRV” reads “not soluble”; that for “GPGSMIKIHTEKDFIKMRAAGKLAAETLDFITDHVKPNVTTNSLNDLCHNFITSHNAIPAPLNYKGFPKSICTSINHVVCHGIPNDKPLKNGDIVNIDVTVILDGWYGDTSRMYYVGDVAIKPKRLIQVTYDAMMKGIEVVRPGAKLGDIGYAIQSYAEKHNYSVVRDYTGHGIGRVFHDKPSILNYGRNGTGLTLKEGMFFTVEPMINAGNYDTILSKLDGWTVTTRDKSLSAQFEHTIGVTKDGFEIFTLSPKKLDYPPY”, “soluble”. The entry for “AHHHHHHGSEEYYVCPECGSEDVEVIKERGREVTLRCNECGYVWMITLPKLREIPVIVSKHERSFREKAVLPEDEVIKVGDVIEIENDQVKVLSIELPGGKRVRKAKVAEIQTIWGESLTYPKVFGVSIYLPGGITQSFKVVVDREEEFVVGEVIEVGGYTFKVEMIKTEKKLMRSGKAKAENIVRLMGHAIKGRARRKLKIYEGYDSISAENQ” is “not soluble”; for “MSLARNLKADKTKTIGVIVRDITGFDTSRTIRGVDDFCKGCDYNALIYNTDFDPETEAKSLEALYQMRVDGIIIASSGQNNTLISEYIDKGMPIVHFQLEHDGSEKNLILSDYRQAAFDATEYLIKLGHKRICFMTQDFKNVKSRNERYSGYVAALKKYDIVQDPALIQYWQRETGFDHSPKSVLESAAAPTAFFTQHLAITTELLTHLNQENITIPDDVSLIGFDDIPMAEFFKVPVTVIKQEPYIIGKEAAKLLLEKVNDKNRHSQKIMISCSITERQSCTEGHHHHHH” it is “soluble”; for “MTAYGHMPGEAIECLSIAVELHKQEVIDAHGQVTIRVGFKIGGGIDQDPTKAPFKYPDSGVYITNVESGSPADVAGLRKHDKILQVNGADFTMMTHDRAVKFIKQSKVLHMLVARADLPPVSLH” it is “not soluble”. Take “MKIALIQQKFHLNKEQTIKKTCEFIEEASKQGAELVCLGELHQSEYFCQSENVDFFDYANDYEKDVKFWANIARKNQIVLIASLFEKRSAGLYHNTAVVFEKDGSIAGKYRKMHIPDDPCFYEKFYFTPGDLGFEPINTSLGKLGVLICWDQWYPEAARIMALKGAEILIYPTAIGWFDKDKDEEKQRQLNAWLGVQKGHAIANGLYVVAINRVGFEKDVSGVEEGIRFWGNSFVFGPQGEELCLLDSQNECVKIIEIDKKRSENVRRWWPFLRDRRIEYFTDLTKRFID”: the “soluble on expression in E. coli” value is “soluble”. As for “YRNSIEGLIEKGIRDEEFIPYYQPIVDSRTQEVVGYEVLLRWQKGHQLVPPSLFISAAEDSGLVVKITNQLIQQVHRDLAQIPAPRWVSINVVADHLEQHHLTHLLEELHWPYSERLKFELTERVPIKAMTQAQEEVFYLLKKGYQFKIDDFGTGYGGFAYLQNLQISSIKIDKMFVDTINTHDVKISVLDSIIASAQGGNIEVIAEGVEHQYQVDYLAERNVFWIQGYFYAKP”, the “soluble on expression in E. coli” value is on record as “not soluble”. For “MSLSIFTDLNTSRKWQIDQWLSAVNSHIEKIQQYGHSVVNPTPLLADGFEIKTQSPVVWQFPDGHDAPISNFASQQNWLRLLISMSVITETEKYRHLAFCQSEYFLNRFVDENSGLFYWGGHRFINLDTLASEGPESKSMVHELKHHLPYYEFLHQVNPEKTRHFIQGFWNAHVEDWSCLDLGRHGDYARQRDPDVFLHSRHDVVTPANWPELPLTKGLTFVNAGTDLIYAAFVYARHTGDAHAAAWGKHLYRQYVLARNPETGMPVYQFSSPLQRQPVPADDNQTQSWFGDRAQRQFGPEFGAIAREANVLFRDMRPLLIDNPLAMLDILRHQPDAEILTWVIAGLKNYYQYAYDVNSNSLRPMWNNGQDMTDYCFKRDGYYGKAGTVLKPFPLEGDYLLPLVRAWLLSDDDDLHTLIVTMLSRLEKQGIHQSASPFLLLAITELAHAKQSAQWAEYAWQMAEILFKRYFHHGLFVRSEHHRYVRLDDPFPAILLTLIAACRNKWSEVPAVLTQGGYIHGDYRINGESRVIYDTGIYLPRKINEGHHHHHH”, the “soluble on expression in E. coli” value is “not soluble”. Take “MGSDKIHHHHHHMQSLYTSASTMAQLQKQLDTTGHNLANANTNGYKRRDSQFNELLVRNLNNQPAGLTPGSLTTPAGLRLGVGGYVANEATRFATGTFQNTGRKLDAALSNPHHFFGVIDADGVTKFTRDGNFELSPQANGQVLLTDDAGRSVINQANEPITFPDDATSIELNKDGNITGVLNGERRVLARIGVADIPNHGELTDVGGGLYTTAGQYQNATGNPLTVGTLETSNVDMATEMTNLTQIQRAYQFNSKALTTSDQMMGIVTSLK”: the “soluble on expression in E. coli” value was “not soluble”. Regarding “MEQAMLKTLALLVLGMHYWCATGFPVYDYDPSSLQEALSASVAKVNSQSLSPYLFRATRSSLKRVNVLDEDTLVMNLEFSVQETTCLRDSGDPSTCAFQRGYSVPTAACRSTVQMSKGQVKDVWAHCRWASSSESNSSEEMMFGDMARSHRRRNDYLLGFLSDESRSEQFRDRSLEIMRRGQPPAHRRFLNLHRRARVNSGFE”, the “soluble on expression in E. coli” value is recorded as “soluble”.

As to “MGSSESIVKLNVGGTVFVTLKSTLTKHHGIFKALVKTEMPAEDGDSFFIDRSPKHFETVLNYIRSGDVDLPDSENELKELKREAEYYSLEKLATLCQSSMPKIKSYKTADELLNMIANTKKVVVVIHYLAYKNQLHTIPLGFKFSEFVERNKDKAEVFIYEIKDEEELKDKPYVDDPNRVWSFCIFNSEWSENYPLKSLRDIQVQLDCFGDF”, the “soluble on expression in E. coli” value is “not soluble”. The entry for “MALPLLPGNSFNRNVGKEKFHKSQHWGFCNNVMMLVSDEKPGIGGEPLLGQKIKPKCSIYPKGDGSDVPSWVAFDKQVLSFDAYLEEEVLDKSQTNYRIRYYKIYFYPEDDTIQVNEPEVKNSGLLQGTSIRRHRITLPPPDEDQFYTVYHFNVGTEVVFYGRTFKIYDCDAFTRNFLRKIGVKVNPPVQCPEDPYMKIRREVVEHVEPLRPYESLDTLKQFLQYHGKILCFFCLWDDSVSMFGDRRELILHYFLCDDTIEIKELLPHSSGRDALKMFLRRSKLPKNCPPRVYQPGQITDRAVLNSYGDFIKNQADGYLFDRYKLGKVDQEFYKDSDLSLGVTINVWGRKVLLYDCDEFTKSYYKSKYGIENFTSVSCKPPSPPPKIERKFPPYNGFGSEEDSLRNCIDLKPTPHRRNFKKFMEKDSYGSKSNILRFFAKLVTDKCVDLDRMFVISYYLGDDTISVFEPIERNSGIAGGMFLKRSRVKKPGQEVFKSELSEYIKAEELYIGVTVNVNGYLFRLLNADEYTLNYMEQNTDKYPFSNLKLALQKLKQEEGKSRELKQVFKAADSKHTNMVDYNTFRDILMSLTVGNLAEQEFVTIARHYRVPEGTCSDMDFLIALAHEKFKKNMFENFDTFIYSCVYEDREKKNVLPTKDIKRLCKSSRLPLSDDLLESLLSRFEDSEKQIDYKSFFSALNWRKNPVPELQPASYLKERCEDVWLGMPSPIPAKYIDYWTFLKDAFGLEEE” is “soluble”.
